The target in this data set is T1, 65K C-RRM WT untagged (UniProt Q96LT9 381-516).
T1 sequence: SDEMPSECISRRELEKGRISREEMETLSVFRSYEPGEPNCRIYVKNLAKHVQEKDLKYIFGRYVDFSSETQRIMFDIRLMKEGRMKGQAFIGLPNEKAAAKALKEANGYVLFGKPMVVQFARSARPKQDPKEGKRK
The data set is described as follows: NMR chemical shift perturbation.

Here are results for 1 molecule from publication PMC5824358.

As for CCCGCCUACUUUGCGGG (structured_RNA) [U12 oligo], the binding result was “binds”.
